# Data from patent US20230070731A1, “COMPOSITIONS FOR SMALL MOLECULE CONTROL OF PRECISE BASE EDITING OF TARGET NUCLEIC ACIDS AND METHODS OF USE THEREOF” (THE TRUSTEES OF THE UNIVERSITY OF PENNSYLVANIA, priority 2020, published 2023).
# Legend:
# [1] = test system: fluorescein (FAM)-labeled oligonucleotide substrate containing a single cytosine; experiment: In vitro DNA deaminase oligonucleotide assay; format: biochemical; details: result in words
# Description: For in vitro assays, purified intact, optGFP-inserted, or split DNA deaminases were expressed in BL21(DE3) cells that co-express the Trigger Factor (TF) chaperone, as previously described^33. Briefly, 600 mL cultures were grown to an OD600 of 0.6 at 37° C. Cultures were shifted to 16° C. for 16 hours after induction with 1 mM IPTG. For AID variants, the pelleted cells were resuspended in 50 mM Tris-Cl (pH 7.5) 150 mM NaCl, 10% glycerol (wash buffer) and lysed through sonication. The soluble fraction was filtered after high-speed centrifugation and incubated with 3 mL of Amylose Resin (NEB) for 1 hr at 4° C. The resin was washed extensively prior to elution with wash buffer plus 10 mM maltose. Total protein was quantified by comparison to a BSA standard curve. For A3A variants, the pelleted cells were resuspended in 50 mM Tris-Cl (pH 7.5) 150 mM NaCl, 10% glycerol, 25 mM imidazole (wash buffer) and lysed through sonication. The soluble fraction was filtered after high-speed centrifugation and incubated with 3 mL of HisPur cobalt resin (Thermo) for 1 hr at 4° C. […]
# For the in vitro assay, a fluorescein (FAM)-labeled oligonucleotide substrate was used containing a single cytosine, along with a product control oligonucleotide containing uracil at the same location. […] Product formation was quantified using ImageJ by taking the ratio of substrate to product under each condition. […]
# BL21(DE3) E. coli = experiment: Bacterial DNA deaminase rifampicin mutagenesis assay (acquired rifampin resistance); format: cell-based; details: expression in E. coli
# Description: In initial studies, a foreign protein/domain was inserted into an enhanced hyperactive version of AID described in U.S. patent application Ser. No. 16/025,261 (See for example, SEQ ID NO: 20 of the '261 patent application) which is incorporated herein by reference as though set forth in full. This mutant version of the human DNA deaminase AID, involved in antibody maturation was assessed and the loop regions which appeared to be tolerant to insertion of control elements (e.g., Green Fluorescent Protein GFP fragments) were identified as described hereinbelow. Several candidate locations for insertion were identified. We used an E. coli-based rifampin mutagenesis assay to evaluate activity (See Kohli et al., J Biol Chem. (2009) 284:pages 22898-904). In this assay we measure the activity level of a mutator by measuring how many E. coli can be turned resistant to the antibiotic rifampin when the enzyme is turned on.
# The mutation frequency of various DNA deaminases, including insertion constructs, were determined using a modified version of previously reported rifampin mutagenesis assay (Kohli, JBC 2009). […] The mutation frequencies were then calculated by the ratio of rifampicin resistant colonies to total population. […]
Substance,in vitro deaminase activity [1],Rif^R increase relative to catalytically inactive mutant AID(E58A) (BL21(DE3) E. coli)
A3A: human A3 enzyme APOBEC3A DNA deaminase,tolerated optGFP insertion,–
AID(WT): unmutated AID (activation induced deaminase),–,12 fold
